Target: Flag-tagged MAVS (UniProt Q7Z434 1-540)
Assay: far-Western, overlay or dot blot

Sequence of Flag-tagged MAVS (Q7Z434 whole entry): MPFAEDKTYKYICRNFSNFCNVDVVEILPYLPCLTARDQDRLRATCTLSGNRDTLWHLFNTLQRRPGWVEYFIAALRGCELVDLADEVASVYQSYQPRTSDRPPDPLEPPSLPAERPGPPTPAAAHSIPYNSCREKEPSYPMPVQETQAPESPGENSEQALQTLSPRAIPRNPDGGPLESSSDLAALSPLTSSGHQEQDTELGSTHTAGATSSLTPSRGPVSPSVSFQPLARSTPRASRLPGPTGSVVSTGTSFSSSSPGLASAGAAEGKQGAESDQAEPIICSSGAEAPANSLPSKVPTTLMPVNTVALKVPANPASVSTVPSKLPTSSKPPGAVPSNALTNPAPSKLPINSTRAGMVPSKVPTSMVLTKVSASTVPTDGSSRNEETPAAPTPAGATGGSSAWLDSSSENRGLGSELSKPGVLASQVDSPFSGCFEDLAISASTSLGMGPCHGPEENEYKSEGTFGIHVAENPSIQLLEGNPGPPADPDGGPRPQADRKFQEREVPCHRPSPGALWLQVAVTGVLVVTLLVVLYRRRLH

B1: GST-tagged RNF34 (natural protein)
chain: MKAGATSMWASCCGLLNEVMGTGAVRGQQSAFAGATGPFRFTPNPEFSTYPPAATEGPNIVCKACGLSFSVFRKKHVCCDCKKDFCSVCSVLQENLRRCSTCHLLQETAFQRPQLMRLKVKDLRQYLILRNIPIDTCREKEDLVDLVLCHHGLGSEDDMDTSSLNSSRSQTSSFFTRSFFSNYTAPSATMSSFQGELMDGDQTSRSGVPAQVQSEITSANTEDDDDDDDEDDDDEEENAEDRNPGLSKERVRASLSDLSSLDDVEGMSVRQLKEILARNFVNYSGCCEKWELVEKVNRLYKENEENQKSYGERLQLQDEEDDSLCRICMDAVIDCVLLECGHMVTCTKCGKRMSECPICRQYVVRAVHVFKS
  binding result: binds

Reference: paper PMC6627233 (The EMBO Journal, 2019)
